Patent US20150359847A1, “METHOD AND COMPOSITION FOR CONFERRING NEUROPROTECTION” (BLOOD SYSTEMS RESEARCH INSTITUTE, priority 2014, published 2015)

Assays:
[1] = tested on: DCX+ve neurons in the subgranule zone of the dentate gyrus; conditions: 7 days post-TBI
Source text: The mouse controlled cortical impact (CCI) injury model was used as previously described. In brief, mice were anesthetized with 5% isoflurane and 1:1 O2:N2 mixture. Animals were mounted on a stereotaxic frame and were secured by ear bars and an incisor bar. Anesthesia was maintained with 2.0% isoflurane and 1:1 O2:N2 mixture. A 5-mm-diameter craniotomy was made midway between bregma and lambda on the right side, with the medial edge of the craniotomy 1 mm lateral to midline. Injury was produced using a magnetic impactor mounted at an angle of 110° from the vertical plane. A single impact at a velocity of 4+/−0.2 m/s was used inflict a moderate to severe injury (1.2-1.3 mm impact depth). After injury, the incision was closed. Sham animals underwent identical surgeries except for impact injury. Core body temperature was monitored using a rectal thermometer and maintained at 36.8° C.-37.2° C. with a heating pad throughout the procedure. For treatments, TIMP3 (60.0 μg/kg) or vehicle control (PBS) administration was performed at 2, 24, and 48 hrs after injury via tail vein injections in a total volume of 125 μl. Animal research was performed with approval of the Institutional Animal Care and Use Committee at ISIS Services LLC (San Carlos, Calif., USA). […]

[2] = tested on: phospho-AKT(Ser473) in SH-SY5Y cells; assay: Akt (Ser473) phosphorylation in differentiated SH-SY5Y cells (antibody array, western blot, Phosflow); assay type: cell-based, human
Protocol: SH-SY5Y cells were obtained from ATCC (Cat# CRL-2266, Manassas, Va.) and were cultured in DMEM and 10% FBS up to passage 10. For differentiation of SH-SY5Y cells into a neuronal phenotype, cells were first plated in DMEEM+10% FBS for 24 hrs before exchanging media in DMEM+1% FBS 10 μM retinoic acid. Differentiation was performed for 3 days before experimentation. Hippocampal neurons were prepared according to the protocol by Beaudoin et al. (Nature Protocols 2012; 7(9):1741-1754) with minor modifications. In brief, after trypsin digestion of hippocampi isolated from P1 mouse pups single cell suspensions was created by trituration and plated onto Biocoat™ poly-D-lysine coated 12-well plates (Cat#354470, BD Biosciences, San Jose, Calif.). 2 pups were used per well and cell suspensions were incubated for 10 minutes per well for a total of 6 wells. The serial incubation allowed for variation in cell densities applicable to different experiments but also contributed to the reduction in non-neuronal cells. Typically wells 1-2 were pooled for western blotting and wells 4-5 were used for imaging following treatments. After the initial plating cells were incubated for 2 hrs before media was completely exchanged for maintenance media that was supplemented with 1 μM of the anti-mitotic cytosine arabinoside in order to further reduce non-neuronal cells. For western blot, cells were cultured for 7 days before experimentation. Half of maintenance media was exchanged on day 2 and day 5. For morphology experiments, treatments were initiated upon the introduction of maintenance media and was renewed 48 hrs later for a further 24 hrs of treatment. Experiments were terminated by fixation for 20 minutes with 4% paraformaldehyde after which cells were stored at 4° C. in PBS prior to staining protocols.
Pathscan Antibody™ array kits were purchased from Cell Signaling Technologies (Danvers, Mass.). PathScan® RTK signaling antibody array kit (Fluorescent Readout, Cat#7949) and PathScan™ Akt signaling antibody array kit (Fluorescent Readout, Cat#9700) were performed as per manufacturer's instructions. Imaging was performed on a LI-COR Odyssey™ infrared scanner and pixel densities measured by in house LI-COR Image™ suite software.
After experimentation, SH-SY5Y cells were detached from culture ware via trypsin digestion and rapidly mixed with an equal volume of BD cytofix fixation buffer (Cat#554655. BD Biosciences, San Jose, Calif.). After wash steps with PBS cells were permeabilized with BD phosflow Perm Buffer III (Cat#558050. BD Biosciences, San Jose, Calif.) and incubated on ice for 30 mins. After washing in BD stain buffer (Cat#554657. BD Biosciences, San Jose, Calif.) cells were counted and 1×10^6 cells were used antibody incubation. Negative IgG compensation control was obtained using ABC control beads (Cat# A10344. Life Technologies, Grand Island, N.Y.). Antibody incubations were conducted for 30 mins at RT in the dark. Following wash steps the volume was adjusted to 500 μl and results obtained using and LSR II flow cytometer and analyzed using Flowjo™ cytometric analytical software version 8.8.7.
Cell lysates for western blotting were prepared with RIPA buffer (Cat#89900. Thermofisher Scientific, Rockford, Ill.) supplemented with phosphatase inhibitor cocktail 2 (Cat# P5726. Sigma, St Louis, Mo.), phosphatase inhibitor cocktail 3 (Cat# P0044. Sigma, St Louis, Mo.) and complete protease inhibitor (Cat#1862209. Thermofisher Scientific, Rockford, Ill.). Complete homogenization was ensured by brief sonication using a Branson Sonifier 150, (Branson Ultrasonics Corporation, Danbury, Conn.). Protein content was quantified with a Pierce BCA protein assay kit per manufacturer's instructions (Cat#23225. Thermofisher Scientific, Rockford, Ill.).
Lysates was analyzed in conjuncture with the LI-COR Odyssey™ infra-red imaging system. […]

SH-SY5Y cells = assay: Hypoxia and MTT assay; assay type: cell-based, human; conditions: 5 hrs hypoxia + 18 hrs recovery; 1 hr pre-treatment with 1 ng/ml TIMP3
Protocol: MTT Cell Viability & Proliferation Assay™ was purchased from ScienCell, (Cat#8028. Carlsbad, Calif.) and performed with modifications. In brief, 2×10^5 SH-SY5Y cells were plated per well of a 12 well plate and differentiated for 2 days. Pre-treatments were conducted 1 hr prior to initiation of hypoxia. Control cells underwent media exchange. For hypoxia, cultures were placed in a hypoxia incubator chamber (Cat#27310. StemCell technologies, Vancouver, BC) and purged of regular air using nitrogen gas for 5 mins at a flow rate of 20 L/min, after which both inlet and outlet values were closed and the chamber was placed inside a regular tissue culture incubator. The chamber was re-gassed after one hour again for 5 mins at a flow rate of 20 L/min. After the hypoxia period, tissue culture plates were removed from the chamber and placed back into a regular tissue culture incubator for 18 hrs. At the time of assay 50 μl of MTT Solution was added to each well and incubated for 1 hr at 37° C. After incubation, add 250 μl of MTT solubilization buffer was added and […] of each test sample was transferred to a well of a 96 well plate. The absorbance was then read using a Polarstar plate reader (BMG Labtech, Cary, N.C.) at a wavelength at 570 nm. Background subtraction was carried out with values from an average of 4 wells of solubilization buffer alone.

B1: TIMP3: Recombinant tissue inhibitor of matrix metalloproteinase-3, a soluble protein released by MSCs, obtained from Amgen Inc. (protein)
chain: CTCSPSHPQDAFCNSDIVIRAKVVGKKLVKEGPFGTLVYTIKQMKMYRGFTKMPHVQYIHTEASESLCGLKLEVNKYQYLLTGRVYDGKMYTGLCNFVERWDQLTLSQRKGLNYRYHLGCNCKIKSCYYLPCFVTSKNECLWTDMLSNFGYPGYQSKHYACIRQKGGYCSWYRGWAPPDKSIINATDP
With B1 the “DCX staining, contralateral side” value [1] was “no significant differences on the contralateral side”, the “DCX+ve neurons, ipsilateral” value ([1]; IV TIMP3 vs TBI) was “significantly attenuated” and the “p-AKT(Ser473), Phosflow cytometry” value ([2]; 1 μg/ml TIMP3, 15 mins) was “activates p-AKT(Ser^473)”. For the same molecule, the “p-AKT(Ser473), western blot” value ([2]; 1 μg/ml TIMP3, 15 mins) was “activates p-AKT(Ser^473)”, the “phospho-AKT(Ser473), fluorescent antibody signaling array” value ([2]; 1 μg/ml TIMP3, 15 mins) was “activates phospho-AKT(Ser^473)” and the “p-AKT(Ser473), Phosflow cytometry” value ([2]; 1 μg/ml TIMP3, 45 minutes) was “activates p-AKT(Ser^473)”. The “SH-SY5Y cell viability by MTT after hypoxia” value (SH-SY5Y cells) was “prevents loss of cell viability”.
